Experimental data as given in US20240417436A1 (BRIGHT PEAK THERAPEUTICS, published 2024).
Blank lines part the entries; values can stand above or below the binder they belong to. Bridges are numbered along the chain shown (N, C = ends). Primed or numbered codes have the meaning given here. [ ]: non-standard residue; d: D form. Ygp″ = O-(PEG8-amino)-tyrosine (O-(8x polyethylene glycol-amino)-tyrosine); Yn3″ = O-(PEG9-azido)-tyrosine (O-(9x polyethylene glycol-azido)-tyrosine); Ygp = O-(8x polyethylene glycol-amino)-tyrosine; Yn3 = O-(9x polyethylene glycol-azido)-tyrosine; cleavable moiety = not defined here; Ygp(3) = O-(PEG8-amino)-tyrosine; Yn3(3) = O-(PEG9-azido)-tyrosine; PEG4′ = 4x polyethylene glycol; PEG9″ = 9x polyethylene glycol; hSer = N[C@@H](CCO)C(=O)O; Nle = CCCC[C@H](N)C(=O)O

Tests used:
[1] = biological target: T1, IL-2 receptor βγ complex on pan T cells (human, UniProt P14784 27-551; P31785 23-369); assay: cell-based or functional assay
T1 sequence (looked up) 1: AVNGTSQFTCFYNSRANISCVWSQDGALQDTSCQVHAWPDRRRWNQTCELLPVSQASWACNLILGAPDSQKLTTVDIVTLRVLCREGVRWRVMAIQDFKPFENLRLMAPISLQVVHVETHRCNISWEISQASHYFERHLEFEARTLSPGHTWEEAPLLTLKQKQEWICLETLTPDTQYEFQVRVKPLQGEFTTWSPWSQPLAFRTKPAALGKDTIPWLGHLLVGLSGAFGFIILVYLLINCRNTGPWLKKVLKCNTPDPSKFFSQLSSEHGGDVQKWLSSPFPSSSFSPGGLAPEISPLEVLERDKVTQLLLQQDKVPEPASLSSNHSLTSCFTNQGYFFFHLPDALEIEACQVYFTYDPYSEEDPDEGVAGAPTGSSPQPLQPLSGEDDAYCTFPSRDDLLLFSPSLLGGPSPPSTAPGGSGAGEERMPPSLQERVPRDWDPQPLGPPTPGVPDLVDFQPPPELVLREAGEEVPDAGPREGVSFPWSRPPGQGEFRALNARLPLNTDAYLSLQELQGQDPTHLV
T1 sequence (looked up) 2: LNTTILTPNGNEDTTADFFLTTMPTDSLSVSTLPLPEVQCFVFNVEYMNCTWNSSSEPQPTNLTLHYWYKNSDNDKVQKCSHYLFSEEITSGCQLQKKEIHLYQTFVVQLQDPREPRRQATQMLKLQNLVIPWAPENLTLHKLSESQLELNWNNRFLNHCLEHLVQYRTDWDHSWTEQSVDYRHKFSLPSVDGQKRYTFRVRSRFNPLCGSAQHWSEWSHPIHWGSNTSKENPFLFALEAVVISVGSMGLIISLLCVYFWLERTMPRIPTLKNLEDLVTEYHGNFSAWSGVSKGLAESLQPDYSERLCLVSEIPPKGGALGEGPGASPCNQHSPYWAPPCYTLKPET

[2] = biological target: T2, Avi-Tag Fc with human IL-2R beta and IL-2R gamma attached (Acrobiosystems ACRB-ILG-H82F3-25UG) (human, UniProt P14784 27-239; P31785 23-262); assay: BLI (Octet), receptor on SAX2 sensor, IL-2 as analyte
T2 construct: bought heterodimer; also called CD122 CD132; CD122/CD132 complex
T2 sequence (looked up) 1: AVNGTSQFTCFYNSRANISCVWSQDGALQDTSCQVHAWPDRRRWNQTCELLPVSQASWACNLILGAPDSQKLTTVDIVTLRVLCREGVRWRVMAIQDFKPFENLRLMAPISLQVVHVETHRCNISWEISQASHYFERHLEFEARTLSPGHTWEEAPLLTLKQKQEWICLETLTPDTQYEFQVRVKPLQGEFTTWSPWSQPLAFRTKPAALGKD
T2 sequence (looked up) 2: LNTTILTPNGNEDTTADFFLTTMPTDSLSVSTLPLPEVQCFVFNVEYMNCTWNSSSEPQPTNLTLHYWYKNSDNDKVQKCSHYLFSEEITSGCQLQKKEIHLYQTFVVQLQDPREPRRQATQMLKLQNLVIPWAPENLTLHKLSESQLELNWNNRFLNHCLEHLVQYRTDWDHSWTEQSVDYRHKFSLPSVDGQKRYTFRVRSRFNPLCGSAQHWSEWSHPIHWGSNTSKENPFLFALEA
Method: (§1) Bilayer interferometry (BLI) assays were used to measure the binding constants between activatable IL-2 polypeptides (and activated versions thereof) to IL-2 receptor subunits or receptor complexes. BLI assays were conducted on an Octet® R8 instrument. Assay plates were 96 well, polypropylene, F-bottom (chimney well), black microplates (Greiner Bio-one, Cat. No: 655209). The biosensors were Octet® SAX2 (Sartorius, Cat. No: 18-5136). The assay buffer was 1× Kinetic Buffer (Sartorius, Cat. no: 18-5136) or Phosphate Buffered Saline (PBS) that contained 0.02% (v: v) Tween 20 (Polysorbate 20) and 0.1% (w/v) bovine serum albumin (BSA). The sensor was regenerated between measurements in 10 mM glycine pH 2.7 buffer.
(§2) Sensor attached receptors were either recombinant human IL-2 receptor beta containing a His-tag and Avi-Tag™ (R&D Systems™ #AVI10459) or an Avi-Tag™ Fc with human IL-2R beta and IL-2R gamma attached (Acrobiosystems Cat. no: ACRB-ILG-H82F3-25UG). Receptors were reconstituted from lyophilized powder to 500 μg/ml in PBS. Analytes were diluted in Kinetic buffer to 300 nM, then serially diluted to lower concentrations.

[3] = biological target: T3, recombinant human IL-2 receptor beta containing a His-tag and Avi-Tag (R&D Systems #AVI10459) (human, UniProt P14784 27-239); assay: as above
T3 construct: bought protein, held on the Octet SAX2 sensor; also called CD122; IL-2Rβ
T3 sequence (looked up): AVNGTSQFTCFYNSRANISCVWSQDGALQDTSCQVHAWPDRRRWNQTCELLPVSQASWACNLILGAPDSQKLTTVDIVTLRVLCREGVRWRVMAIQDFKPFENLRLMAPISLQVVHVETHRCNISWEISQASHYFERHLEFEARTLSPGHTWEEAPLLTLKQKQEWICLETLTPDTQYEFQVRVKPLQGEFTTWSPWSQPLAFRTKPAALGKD
Method: as §1, §2

B2: CMP-303 (ligand)
chain: PLGLAGAPTSSSTKKTQLQLEHLLLDLQEILNGINNYKNPKLTR[Nle]L[hSer][Yn3]KF[Ygp][Nle]PKKATELKHLQCLEEELKPLEEVL[hSer]LAQSKNFHLRPRDLISNINVIVLELKGSETTF[hSer]CEYADETATIVEFLNRWITFSQSIISTLT
modifications: linker N-29 via PEG4′; ends not checked
- Average EC50, pSTAT5 assay in pan T cells, intact molecule [1]: 97.9 nM

B3: CMP-302 (ligand)
chain: GPLGLAGAPTSSSTKKTQLQLEHLLLDLQEILNGINNYKNPKLTR[Nle]L[hSer][Yn3]KF[Ygp][Nle]PKKATELKHLQCLEEELKPLEEVL[hSer]LAQSKNFHLRPRDLISNINVIVLELKGSETTF[hSer]CEYADETATIVEFLNRWITFSQSIISTLT
modifications: lactam N-30; ends not checked
- Average EC50, pSTAT5 assay in pan T cells, intact molecule [1]: 63.4 nM

B4: CMP-301, MMP2 cleaved (ligand)
chain: APTSSSTKKTQLQLEHLLLDLQEILNGINNYKNPKLTR[Nle]L[hSer][Yn3]KF[Ygp][Nle]PKKATELKHLQCLEEELKPLEEVL[hSer]LAQSKNFHLRPRDLISNINVIVLELKGSETTF[hSer]CEYADETATIVEFLNRWITFSQSIISTLT
modifications: ends and bridges not checked; also: cleavable moiety between Glu23 side chain and N-terminus cut by MMP2, macrocycle opened, cut site not given here
- Average EC50, pSTAT5 assay in pan T cells, MMP2 cleaved molecule [1]: 0.883 nM

B9: CMP-138 (ligand)
chain: APTSSSTKKTQLQLEHLLLDLQ[Nle]ILNGIENYKNPKLTR[Nle]L[hSer][Yn3]KF[Ygp][Nle]PKKATELKHLQCLEEELKPLEEVL[hSer]LAQSKNFHLRPRDLISNINVIVLELKGSETTF[hSer]CEYADETATIVEFLNRWITFSQSIISTLT
modifications: disulfide 58-105; bridge N-29; not fully specified (residue 29, bridges)
- Kd [2]: 12.3 nM
- koff [2]: 0.00284 s⁻¹
- kon [2]: 232000 M⁻¹ s⁻¹
- Kd [3]: 11.7 nM
- koff [3]: 0.0105 s⁻¹
- kon [3]: 898000 M⁻¹ s⁻¹

B10: CMP-302, MMP2 cleaved (ligand)
chain: GPLGLAGAPTSSSTKKTQLQLEHLLLDLQEILNGINNYKNPKLTR[Nle]L[hSer][Yn3]KF[Ygp][Nle]PKKATELKHLQCLEEELKPLEEVL[hSer]LAQSKNFHLRPRDLISNINVIVLELKGSETTF[hSer]CEYADETATIVEFLNRWITFSQSIISTLT
modifications: ends and bridges not checked; also: cleaved by MMP2 within the cleavable peptide, macrocycle opened, cut site not given here
- Average EC50, pSTAT5 assay in pan T cells, MMP2 cleaved molecule [1]: 1.43 nM

B12: CMP-136 (ligand)
chain: APTSSSTKKTQLQLEHLLLDLQ[Nle]ILNGIENYKNPKLTR[Nle]L[hSer][Yn3″]KF[Ygp″][Nle]PKKATELKHLQCLEEELKPLEEVL[hSer]LAQSKNFHLRPRDLISNINVIVLELKGSETTF[hSer]CEYADETATIVEFLNRWITFSQSIISTLT
modifications: disulfide 58-105; bridge N-29; not fully specified (residue 29, bridges); also: cleavable peptide sequence not given here
- Kd [2]: 12.6 nM
- koff [2]: 0.00498 s⁻¹
- kon [2]: 396000 M⁻¹ s⁻¹
- Kd [3]: 8.44 nM
- koff [3]: 0.00767 s⁻¹
- kon [3]: 909000 M⁻¹ s⁻¹

More lines, now with the values ahead:

- Average EC50, pSTAT5 assay in pan T cells, MMP2 cleaved molecule [1]: 4.4 nM
B1: CMP-303, MMP2 cleaved (ligand)
chain: PLGLAGAPTSSSTKKTQLQLEHLLLDLQEILNGINNYKNPKLTR[Nle]L[hSer][Yn3]KF[Ygp][Nle]PKKATELKHLQCLEEELKPLEEVL[hSer]LAQSKNFHLRPRDLISNINVIVLELKGSETTF[hSer]CEYADETATIVEFLNRWITFSQSIISTLT
modifications: ends and bridges not checked; also: cleaved by MMP2 within the cleavable peptide, macrocycle opened, cut site not given here, PEG4 linker

- Average EC50, pSTAT5 assay in pan T cells, MMP2 cleaved molecule [1]: 3.26 nM
B5: CMP-305, MMP2 cleaved (ligand)
chain: APTSSSTKKTQLQLEHLLLDLQKILNGINNYKNPKLTR[Nle]L[hSer][Yn3]KF[Ygp][Nle]PKKATELKHLQCLEEELKPLEEVL[hSer]LAQSKNFHLRPRDLISNINVIVLELKGSETTF[hSer]CEYADETATIVEFLNRWITFSQSIISTLT
modifications: ends and bridges not checked; also: cleavable moiety between Glu15 and Lys23 side chains cut by MMP2, macrocycle opened, cut site not given here

- Average EC50, pSTAT5 assay in pan T cells, intact molecule [1]: 128 nM
B6: CMP-305 (ligand)
chain: APTSSSTKKTQLQLEHLLLDLQKILNGINNYKNPKLTR[Nle]L[hSer][Yn3]KF[Ygp][Nle]PKKATELKHLQCLEEELKPLEEVL[hSer]LAQSKNFHLRPRDLISNINVIVLELKGSETTF[hSer]CEYADETATIVEFLNRWITFSQSIISTLT
modifications: linker 15-23 via cleavable moiety; ends not checked; also: cleavable peptide of the bridge not defined

- Average EC50, pSTAT5 assay in pan T cells, intact molecule [1]: 110 nM
B7: CMP-304 (ligand)
chain: PLGLAGAPTSSSTKKTQLQLEHLLLDLQEILNGINNYKNPKLTR[Nle]L[hSer][Yn3]KF[Ygp][Nle]PKKATELKHLQCLEEELKPLEEVL[hSer]LAQSKNFHLRPRDLISNINVIVLELKGSETTF[hSer]CEYADETATIVEFLNRWITFSQSIISTLT
modifications: linker N-29 via PEG9″; ends not checked

- Kd [2]: 9.19 nM
- koff [2]: 0.000786 s⁻¹
- kon [2]: 85500 M⁻¹ s⁻¹
- Kd [3]: 59.5 nM
- koff [3]: 0.0122 s⁻¹
- kon [3]: 206000 M⁻¹ s⁻¹
B8: CMP-319 (ligand)
chain: RGRRVANLVGAPTSSSTKKTQLQLEHLLLDLQEILNGINNYKNPKLTR[Nle]L[hSer][Yn3(3)]KF[Ygp(3)][Nle]PKKATELKHLQCLEEELKPLEEVL[hSer]LAQSKNFHLRPRDLISNINVIVLELKGSETTF[hSer]CEYADETATIVEFLNRWITFSQSIISTLT
modifications: lactam N-33; not fully specified (bridges)

- Average EC50, pSTAT5 assay in pan T cells, MMP2 cleaved molecule [1]: 8.61 nM
B11: CMP-304, MMP2 cleaved (ligand)
chain: PLGLAGAPTSSSTKKTQLQLEHLLLDLQEILNGINNYKNPKLTR[Nle]L[hSer][Yn3]KF[Ygp][Nle]PKKATELKHLQCLEEELKPLEEVL[hSer]LAQSKNFHLRPRDLISNINVIVLELKGSETTF[hSer]CEYADETATIVEFLNRWITFSQSIISTLT
modifications: ends and bridges not checked; also: cleaved by MMP2 within the cleavable peptide, macrocycle opened, cut site not given here, PEG9 linker
